Test results as given in patent US20110131688A1 (SALK INSTITUTE FOR BIOLOGICAL STUDIES, published 2011).
One block for each binder: values may come before it.

B1: EBF2 (EIN3-binding F-box protein 2) (other)
chain: MSGIFRFSGDEDCLLGGSMYLSPGSCPGVYYPARKRLRVAATSFYSGFEEKQTSIDVLPEECLFEILRRLPSGQERSACACVSKHWLNLLSSISRSEVNESSVQDVEEGEGFLSRSLEGKKATDLRLAAIAVGTSSRGGLGKLQIRGSGFESKVTDVGLGAVAHGCPSLRIVSLWNLPAVSDLGLSEIARSCPMIEKLDLSRCPGITDSGLVAIAENCVNLSDLTIDSCSGVGNEGLRAIARRCVNLRSISIRSCPRIGDQGVAFLLAQAGSYLTKVKLQMLNVSGLSLAVIGHYGAAVTDLVLHGLQGVNEKGFWVMGNAKGLKKLKSLSVMSCRGMTDVGLEAVGNGCPDLKHVSLNKCLLVSGKGLVALAKSALSLESLKLEECHRINQFGLMGFLMNCGSKLKAFSLANCLGISDFNSESSLPSPSCSSLRSLSIRCCPGFGDASLAFLGKFCHQLQDVELCGLNGVTDAGVRELLQSNNVGLVKVNLSECINVSDNTVSAISVCHGRTLESLNLDGCKNITNASLVAVAKNCYSVNDLDISNTLVSDHGIKALASSPNHLNLQVLSIGGCSSITDKSKACIQKLGRTLLGLNIQRCGRISSSTVDTLLENLWRCDILY
notes: In the yeast two-hybrid assays the cDNA was cloned into pAS2 or pACT2 (Clontech), so the protein was a fusion with the vector's domain; also called AAR27072.1
B3: EBF1 (EIN3-binding F-box protein 1) (other)
chain: MSQIFSFAGENDFYRRGAIYPNPKDASLLLSLGSFADVYFPPSKRSRVVAPTIFSAFEKKPVSIDVLPDECLFEIFRRLSGPQERSACAFVSKQWLTLVSSIRQKEIDVPSKITEDGDDCEGCLSRSLDGKKATDVRLAAIAVGTAGRGGLGKLSIRGSNSAKVSDLGLRSIGRSCPSLGSLSLWNVSTITDNGLLEIAEGCAQLEKLELNRCSTITDKGLVAIAKSCPNLTELTLEACSRIGDEGLLAIARSCSKLKSVSIKNCPLVRDQGIASLLSNTTCSLAKLKLQMLNVTDVSLAVVGHYGLSITDLVLAGLSHVSEKGFWVMGNGVGLQKLNSLTITACQGVTDMGLESVGKGCPNMKKAIISKSPLLSDNGLVSFAKASLSLESLQLEECHRVTQFGFFGSLLNCGEKLKAFSLVNCLSIRDLTTGLPASSHCSALRSLSIRNCPGFGDANLAAIGKLCPQLEDIDLCGLKGITESGFLHLIQSSLVKINFSGCSNLTDRVISAITARNGWTLEVLNIDGCSNITDASLVSIAANCQILSDLDISKCAISDSGIQALASSDKLKLQILSVAGCSMVTDKSLPAIVGLGSTLLGLNLQQCRSISNSTVDFLVERLYKCDILS
notes: In the yeast two-hybrid assays the cDNA was cloned into pAS2 or pACT2 (Clontech), so the protein was a fusion with the vector's domain; also called FBL6; At2g25490

Key:
[1] = target: T1, EIN3 full-length protein (ETHYLENE-…3 transcription factor) (Arabidopsis, UniProt O24606 1-628); assay: yeast two-hybrid (summary in Example 8)
T1 construct: Full-length EIN3 in the direct yeast two-hybrid tests, cloned in pAS2 or pACT2; In the immunoblots it is the endogenous or overexpressed EIN3 from plant extracts; also called At3g20770
T1 sequence: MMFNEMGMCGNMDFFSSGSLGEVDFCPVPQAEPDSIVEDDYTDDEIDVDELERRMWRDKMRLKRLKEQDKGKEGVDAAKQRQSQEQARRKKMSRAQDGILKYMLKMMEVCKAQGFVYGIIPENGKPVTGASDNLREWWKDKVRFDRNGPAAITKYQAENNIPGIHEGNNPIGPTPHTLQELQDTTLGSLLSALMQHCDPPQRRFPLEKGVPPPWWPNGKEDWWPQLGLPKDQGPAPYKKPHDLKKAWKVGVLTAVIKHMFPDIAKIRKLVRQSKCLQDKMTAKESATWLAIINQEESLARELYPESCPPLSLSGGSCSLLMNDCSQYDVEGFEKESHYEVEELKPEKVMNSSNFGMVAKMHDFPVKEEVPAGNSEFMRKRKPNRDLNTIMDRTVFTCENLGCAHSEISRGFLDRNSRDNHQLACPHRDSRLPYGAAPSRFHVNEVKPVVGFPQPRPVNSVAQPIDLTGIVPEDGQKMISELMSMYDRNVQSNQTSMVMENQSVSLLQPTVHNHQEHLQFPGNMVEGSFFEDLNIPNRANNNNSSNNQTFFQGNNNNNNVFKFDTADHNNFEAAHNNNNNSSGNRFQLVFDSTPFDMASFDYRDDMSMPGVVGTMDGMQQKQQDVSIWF
Description: (§1) We then directly tested the possible interaction between EIN3 full-length protein and individual F-box proteins. Using genome-wide microarray experiments, we narrowed the search for EIN3-interacting F-box proteins by first testing those genes whose RNA levels were regulated by ethylene (Alonso et al., Science 301, 653-657, 2003; H. G. and J. R. E., unpublished data). From this gene list, two closely related candidate F-box proteins were identified which were able to interact with EIN3 in yeast two-hybrid assays (FIGS. 4C and 4E). We designated these two F-box proteins as EBF1 and EBF2 (for EIN3-binding F-box protein 1 and 2). EBF1 was previously named as FBL6 with no function assigned (Xiao and Jang, 2000). These two proteins share 57% identity in amino acid sequence (FIG. 4A), and each contains a well-conserved F-box motif in the amino-terminus and 18 tandem leucine-rich repeats (LRRs) in the carboxyl terminus (FIGS. 4A and 4B). Because LRR domains in several F-box proteins contribute to the substrate binding (Gagne et al., Proc Natl Acad Sci 99, 11519-11524, 2002), we tested whether the C-terminal LRR domains in EBF1 and EBF2 were sufficient for EIN3 interaction. […]

[2] = target: B1; assay: yeast two-hybrid
Description: as §1

[3] = target: B3; assay: yeast two-hybrid
Description: as §1

[4] = target: T1, EIN3 full-length protein (ETHYLENE-…3 …); assay: yeast two-hybrid, filter-lift beta-galactosidase
Description: as §1

Binder: B1
binding result [1]: binds

binding result [2]: binds
binding result [3]: binds
B2: ASK1, an Arabidopsis Skp1 protein (other, UniProt Q39255 1-160, looked up)
chain: MSAKKIVLKSSDGESFEVEEAVALESQTIAHMVEDDCVDNGVPLPNVTSKILAKVIEYCKRHVEAAASKAEAVEGAATSDDDLKAWDADFMKIDQATLFELILAANYLNIKNLLDLTCQTVADMIKGKTPEEIRTTFNIKNDFTPEEEEEVRRENQWAFE
notes: Yeast two-hybrid fusion in pAS2 or pACT2

Binder: B3
binding result [4]: binds
